According to patent US20050014193A1, “Identification of target-specific folding sites in peptides and proteins” (priority 2003, published 2005):
Square brackets hold non-standard residues; d marks the D form. Ends that are not written are not given here. dChg = N[C@@H](C(=O)O)C1CCCCC1; Chg = N[C@H](C(=O)O)C1CCCCC1; Orn = NCCC[C@H](N)C(=O)O; Dap = NC[C@H](N)C(=O)O; Sar = CNCC(=O)O

Columns and labels:
vasopressin-1 receptor = biological target: T1, vasopressin-1 receptor (Rattus norvegicus, UniProt P30560); assay: 3H-vasopressin-1 antagonist binding inhibition, rat liver cell membranes; settings: Re-complexed
T1 construct: cell membranes prepared from rat liver; from tissue; host or cells: rat liver membranes
T1 sequence (P30560 whole entry): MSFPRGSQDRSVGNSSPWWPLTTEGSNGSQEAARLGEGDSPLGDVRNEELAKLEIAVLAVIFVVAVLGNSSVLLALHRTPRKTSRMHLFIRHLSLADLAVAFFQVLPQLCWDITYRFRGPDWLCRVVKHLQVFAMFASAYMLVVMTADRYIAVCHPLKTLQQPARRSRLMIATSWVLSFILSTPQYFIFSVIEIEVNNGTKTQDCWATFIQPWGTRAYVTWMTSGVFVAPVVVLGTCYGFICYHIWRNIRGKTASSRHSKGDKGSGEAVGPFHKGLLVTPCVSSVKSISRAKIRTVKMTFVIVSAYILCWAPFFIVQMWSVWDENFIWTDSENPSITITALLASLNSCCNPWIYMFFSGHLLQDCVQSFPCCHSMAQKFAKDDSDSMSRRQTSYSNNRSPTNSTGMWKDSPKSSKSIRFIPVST
Procedure: The screening of compounds for vasopressin-1 receptor was performed using cell membranes prepared from rat liver. The assay was essentially performed as described above for the oxytocin receptor assay. In this assay 2-4 nM ^3H-vasopressin-1 antagonist (obtained from Perkin Elemer-NEN Life Sciences) was used as the radiotracer and Arg^8-vasopressin (1 μM final concentration in the assay) was used to determine non-specific binding. The assay was performed in triplicates. Activity profile for the test compounds were generated by their ability to inhibit specific binding of the radiotracer to its receptor.

oxytocin receptor = biological target: T2, oxytocin receptor (Rattus norvegicus, UniProt P70536); assay: 3H-oxytocin binding inhibition, rat uterus cell membranes; settings: for % Inhibition at 1 μM Oxytocin Receptor (Table 30) / % Inhibition at 1 μM Oxytocin Receptor (Table 29): rat uterus membranes, Re-complexed; for activity at oxytocin receptor: within the Table 30 series
T2 construct: cell membranes prepared from rat uterus; from tissue; host or cells: rat uterus membranes
T2 sequence (P70536 1-388): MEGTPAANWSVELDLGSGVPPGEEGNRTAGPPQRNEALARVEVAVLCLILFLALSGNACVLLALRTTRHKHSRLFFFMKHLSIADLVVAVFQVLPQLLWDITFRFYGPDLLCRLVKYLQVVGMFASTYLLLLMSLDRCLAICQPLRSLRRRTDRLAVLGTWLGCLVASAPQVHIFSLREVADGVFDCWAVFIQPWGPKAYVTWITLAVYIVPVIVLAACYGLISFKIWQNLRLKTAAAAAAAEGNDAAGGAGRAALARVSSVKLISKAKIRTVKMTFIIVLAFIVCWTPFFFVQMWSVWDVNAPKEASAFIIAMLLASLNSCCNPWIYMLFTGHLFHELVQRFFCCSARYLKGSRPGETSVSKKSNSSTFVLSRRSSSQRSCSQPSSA
Procedure: The screening of metallopeptides for binding to oxytocin receptor was done using cell membranes prepared from rat uterus. […] The membrane preparations (10-50 μg/well) were incubated with […] ^3H-oxytocin in HEPES Buffer containing 0.2% bovine serum albumin along with a test compound (1 μM final assay concentration) for 2 hours at 4° C. Non-specific binding was determined by addition of 10^−6 M oxytocin instead of the test compound. After incubation, the membranes were filtered and washed three times with ice-cold PBS. The membranes were air-dried and punched directly into scintillation vials. After addition of the scintillation cocktail, the vials were capped and gently shaken for 12 hours to dissolve the radioactivity contained in the filters. The vials were then read for tritium counts in a scintillation counter. Specific binding was determined as the radioactivity in wells containing ^3H-oxytocin alone minus the radioactivity in wells containing 10^−6 M oxytocin. The assay was performed in triplicates. The activity profile for the test compounds were generated by their ability to inhibit specific binding of the radiotracer to its receptor.

angiotensin-II receptor = biological target: T3, angiotensin-II receptor (Homo sapiens, UniProt P30556); assay: 125I-Tyr4,Sar1,Ile8-Angiotensin II binding inhibition, human neuroblastoma (KAN-TS) cell membranes; settings: for % Inhibition at 1 μM (Angiotensin Receptor): KAN-TS cell membranes, Re-complexed
T3 construct: cell membranes obtained from human neuroblastoma cells (KAN-TS); endogenous in cells; host or cells: KAN-TS human neuroblastoma cells (membranes)
T3 sequence (P30556 1-359): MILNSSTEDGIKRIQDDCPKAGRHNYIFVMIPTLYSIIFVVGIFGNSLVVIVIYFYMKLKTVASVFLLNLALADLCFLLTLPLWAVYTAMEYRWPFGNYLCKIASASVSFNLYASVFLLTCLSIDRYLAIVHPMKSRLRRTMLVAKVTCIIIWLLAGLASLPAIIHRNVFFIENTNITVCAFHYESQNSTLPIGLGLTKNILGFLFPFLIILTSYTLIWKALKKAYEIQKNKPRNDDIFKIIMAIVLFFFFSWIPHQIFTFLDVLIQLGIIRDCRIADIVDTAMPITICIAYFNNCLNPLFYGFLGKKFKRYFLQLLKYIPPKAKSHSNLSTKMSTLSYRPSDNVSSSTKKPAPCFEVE
Procedure: The screening of compounds for binding to the angiotensin-II receptor was performed using cell membranes obtained from human neuroblastoma cells (KAN-TS). The assay was performed in triplicates, generally as described in Example 4 for oxytocin, except for measurement of receptor bound radioactivity. For angiotensin, a radioiodinated tracer ligand was used (instead of a tritiated ligand), which radioiodinated tracer facilitated direct measurement of bound radioactivity using a gamma counter. A final 1-3 nM concentration of ^125I-Tyr^4, Sar^1, Ile^8-Angiotensin II ligand (obtained from Perkin Elemer-NEN Life Sciences) was used as radiotracer and angiotensin-II (1 μM final assay concentration) was used to measure non-specific binding. After filtration of the incubation medium, followed by washings, drying the filters and punching the filters into test tubes, the filters were counted for radioactivity in a gamma counter. An activity profile for the test compounds was generated by ability to inhibit specific binding of the radiotracer to its receptor.

For “Ala-Tyr-Ile-Gln-Asn-Ala-Ala-Leu-Cys-Gly-NH2 (AYIQNAALCG-NH2; not fully specified (bridges); printed as Ala-Tyr-Ile-Gln-Asn-Ala-Ala-Leu-Cys-Gly-NH2; also: oxorhenium(V) N3S1 metal chelate (Re=O)) [SEQ ID NO:151]”, the “% Inhibition at 1 μM Vasopressin-1 Receptor (Table 30)” value (vasopressin-1 receptor) was 0% and the “% Inhibition at 1 μM Oxytocin Receptor (Table 30)” value (oxytocin receptor) was 0%.

In the case of “Ala-Tyr-Ile-Gln-Cys-Asn-Ala-Pro-Leu-Gly-NH2 (AYIQCNAPLG-NH2; not fully specified (bridges); printed as Ala-Tyr-Ile-Gln-Cys-Asn-Ala-Pro-Leu-Gly-NH2; also: oxorhenium(V) N3S1 metal chelate (Re=O)) [SEQ ID NO:156]”, the “% Inhibition at 1 μM Vasopressin-1 Receptor (Table 30)” value (vasopressin-1 receptor) is reported as 0% and the “activity at oxytocin receptor” value (oxytocin receptor) is reported as “also active”.

For “Ala-Tyr-Ile-Gln-Asn-Cys-Ala-Pro-Leu-Gly-NH2 (AYIQNCAPLG-NH2; not fully specified (bridges); printed as Ala-Tyr-Ile-Gln-Asn-Cys-Ala-Pro-Leu-Gly-NH2; also: oxorhenium(V) N3S1 metal chelate (Re=O)) [SEQ ID NO:155]”, the “% Inhibition at 1 μM Vasopressin-1 Receptor (Table 30)” value (vasopressin-1 receptor) was 0% and the “activity at oxytocin receptor” value (oxytocin receptor) was “maximal activity”.

In the case of “Ala-Tyr-Cys-Ile-Gln-Asn-Ala-Pro-Leu-Gly-NH2 (AYCIQNAPLG-NH2; not fully specified (bridges); printed as Ala-Tyr-Cys-Ile-Gln-Asn-Ala-Pro-Leu-Gly-NH2; also: oxorhenium(V) N3S1 metal chelate (Re=O)) [SEQ ID NO:158]”, the “% Inhibition at 1 μM Vasopressin-1 Receptor (Table 30)” value (vasopressin-1 receptor) is reported as 1% and the “% Inhibition at 1 μM Oxytocin Receptor (Table 30)” value (oxytocin receptor) is reported as 6%.

In the case of “Sar-Arg-Val-Tyr-Ile-His-Gly-Cys-Thr ([Sar]RVYIHGCT; not fully specified (bridges); printed as Sar-Arg-Val-Tyr-Ile-His-Gly-Cys-Thr; also: oxorhenium(V) N3S1 metal chelate (Re=O)) [SEQ ID NO:160]”, the “% Inhibition at 1 μM (Angiotensin Receptor)” value (angiotensin-II receptor) is reported as 5%.

“Ala-Tyr-Ile-Gln-Asn-Ala-Ala-Leu-Gly-Cys-NH2 (AYIQNAALGC-NH2; not fully specified (bridges); printed as Ala-Tyr-Ile-Gln-Asn-Ala-Ala-Leu-Gly-Cys-NH2; also: oxorhenium(V) N3S1 metal chelate (Re=O)) [SEQ ID NO:150]” was tested, and the “% Inhibition at 1 μM Vasopressin-1 Receptor (Table 30)” value (vasopressin-1 receptor) was 0% and the “% Inhibition at 1 μM Oxytocin Receptor (Table 30)” value (oxytocin receptor) was 0%.

For [dChg][dW]CIT[Dap]AP[Orn]-NH2, the “% Inhibition at 1 μM Vasopressin-1 Receptor (Table 29)” value (vasopressin-1 receptor) was 8% and the “% Inhibition at 1 μM Oxytocin Receptor (Table 29)” value (oxytocin receptor) was 0%.

“Ala-Tyr-Ile-Gln-Asn-Ala-Ala-Cys-Leu-Gly-NH2 (AYIQNAACLG-NH2; not fully specified (bridges); printed as Ala-Tyr-Ile-Gln-Asn-Ala-Ala-Cys-Leu-Gly-NH2; also: oxorhenium(V) N3S1 metal chelate (Re=O)) [SEQ ID NO:152]” was tested, and the “% Inhibition at 1 μM Vasopressin-1 Receptor (Table 30)” value (vasopressin-1 receptor) was 1% and the “% Inhibition at 1 μM Oxytocin Receptor (Table 30)” value (oxytocin receptor) was 0%.

In the case of “Caca-D-Trp-Ile-Thr-Cys-Dap-Ala-Pro-Orn-NH2”, the “% Inhibition at 1 μM Vasopressin-1 Receptor (Table 29)” value (vasopressin-1 receptor) is reported as 0% and the “% Inhibition at 1 μM Oxytocin Receptor (Table 29)” value (oxytocin receptor) is reported as 0%.

For “Sar-Arg-Cys-Val-Tyr-Ile-His-Pro-Thr ([Sar]RCVYIHPT; not fully specified (bridges); printed as Sar-Arg-Cys-Val-Tyr-Ile-His-Pro-Thr; also: oxorhenium(V) N3S1 metal chelate (Re=O)) [SEQ ID NO:165]”, the “% Inhibition at 1 μM (Angiotensin Receptor)” value (angiotensin-II receptor) was 1%.

“Ala-Tyr-Ile-Gln-Asn-Ala-Cys-Ala-Leu-Gly-NH2 (AYIQNACALG-NH2; not fully specified (bridges); printed as Ala-Tyr-Ile-Gln-Asn-Ala-Cys-Ala-Leu-Gly-NH2; also: oxorhenium(V) N3S1 metal chelate (Re=O)) [SEQ ID NO:154]” was tested, and the “% Inhibition at 1 μM Vasopressin-1 Receptor (Table 30)” value (vasopressin-1 receptor) was 0% and the “activity at oxytocin receptor” value (oxytocin receptor) was “also active”.

In the case of “Caca-D-Trp-Ile-Thr-Dap-Ala-Cys-Pro-Orn-NH2”, the “% Inhibition at 1 μM Vasopressin-1 Receptor (Table 29)” value (vasopressin-1 receptor) is reported as 0% and the “% Inhibition at 1 μM Oxytocin Receptor (Table 29)” value (oxytocin receptor) is reported as 0%.

“Pmp-D-Trp-Cys-Ile-Thr-Dap-Ala-Pro-Orn-NH2” was tested, and the “% Inhibition at 1 μM Oxytocin Receptor (Table 29)” value (oxytocin receptor) was 0%.

With “Caca-D-Trp-Ile-Thr-Dap-Ala-Cys-Ala-Orn-NH2” the “% Inhibition at 1 μM Vasopressin-1 Receptor (Table 29)” value (vasopressin-1 receptor) was 0% and the “% Inhibition at 1 μM Oxytocin Receptor (Table 29)” value (oxytocin receptor) was 0%.

With “Ala-Tyr-Ile-Gln-Asn-Ala-Pro-Leu-Gly-Cys-NH2 (AYIQNAPLGC-NH2; not fully specified (bridges); printed as Ala-Tyr-Ile-Gln-Asn-Ala-Pro-Leu-Gly-Cys-NH2; also: oxorhenium(V) N3S1 metal chelate (Re=O)) [SEQ ID NO:149]” the “% Inhibition at 1 μM Vasopressin-1 Receptor (Table 30)” value (vasopressin-1 receptor) was 0% and the “% Inhibition at 1 μM Oxytocin Receptor (Table 30)” value (oxytocin receptor) was 6%.

[Chg][dW]CIT[Dap]AP[Orn]-NH2 was tested, and the “% Inhibition at 1 μM Vasopressin-1 Receptor (Table 29)” value (vasopressin-1 receptor) was 0% and the “% Inhibition at 1 μM Oxytocin Receptor (Table 29)” value (oxytocin receptor) was 0%.

“Caca-D-Trp-Ile-Thr-Dap-Cys-Ala-Pro-Orn-NH2” was tested, and the “% Inhibition at 1 μM Oxytocin Receptor (Table 29)” value (oxytocin receptor) was 9%.

“Ala-Tyr-Ile-Gln-Asn-Ala-Cys-Pro-Leu-Gly-NH2 (AYIQNACPLG-NH2; not fully specified (bridges); printed as Ala-Tyr-Ile-Gln-Asn-Ala-Cys-Pro-Leu-Gly-NH2; also: oxorhenium(V) N3S1 metal chelate (Re=O)) [SEQ ID NO:153]” was tested, and the “% Inhibition at 1 μM Vasopressin-1 Receptor (Table 30)” value (vasopressin-1 receptor) was 0% and the “% Inhibition at 1 μM Oxytocin Receptor (Table 30)” value (oxytocin receptor) was 2%.

For “Caca-D-Trp-Ile-Thr-Dap-Ala-Ala-Cys-Orn-NH2”, the “% Inhibition at 1 μM Vasopressin-1 Receptor (Table 29)” value (vasopressin-1 receptor) was 0% and the “% Inhibition at 1 μM Oxytocin Receptor (Table 29)” value (oxytocin receptor) was 0%.

“Ala-Tyr-Ile-Cys-Gln-Asn-Ala-Pro-Leu-Gly-NH2 (AYICQNAPLG-NH2; not fully specified (bridges); printed as Ala-Tyr-Ile-Cys-Gln-Asn-Ala-Pro-Leu-Gly-NH2; also: oxorhenium(V) N3S1 metal chelate (Re=O)) [SEQ ID NO:157]” was tested, and the “% Inhibition at 1 μM Vasopressin-1 Receptor (Table 30)” value (vasopressin-1 receptor) was 0% and the “% Inhibition at 1 μM Oxytocin Receptor (Table 30)” value (oxytocin receptor) was 0%.

In the case of “Sar-Arg-Val-Tyr-Ile-His-Cys-Gly-Thr ([Sar]RVYIHCGT; not fully specified (bridges); printed as Sar-Arg-Val-Tyr-Ile-His-Cys-Gly-Thr; also: oxorhenium(V) N3S1 metal chelate (Re=O)) [SEQ ID NO:166]”, the “percent inhibition at angiotensin receptor compared” value (angiotensin-II receptor; Gly for Pro substitution) is reported as “significantly less than in SEQ ID NO:161”.

With “Sar-Arg-Val-Cys-Tyr-Ile-His-Pro-Thr ([Sar]RVCYIHPT; not fully specified (bridges); printed as Sar-Arg-Val-Cys-Tyr-Ile-His-Pro-Thr; also: oxorhenium(V) N3S1 metal chelate (Re=O)) [SEQ ID NO:164]” the “% Inhibition at 1 μM (Angiotensin Receptor)” value (angiotensin-II receptor) was 1%.

“Caca-D-Trp-Ile-Cys-Thr-Dap-Ala-Pro-Orn-NH2” was tested, and the “% Inhibition at 1 μM Oxytocin Receptor (Table 29)” value (oxytocin receptor) was 0%.

“Caca-D-Trp-Ile-Thr-Dap-Ala-Ala-Orn-Cys-NH2” was tested, and the “% Inhibition at 1 μM Oxytocin Receptor (Table 29)” value (oxytocin receptor) was 0%.
